Values quoted from earlier work, collected in PMC2289845.

Biological target: KIX KIX (UniProt P45481)
Sequence of UniProt P45481 (P45481 586-665): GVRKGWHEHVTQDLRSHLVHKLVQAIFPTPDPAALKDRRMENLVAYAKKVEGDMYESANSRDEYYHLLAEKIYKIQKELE

In the case of pKID KID (from UniProt P15337), the Kd is given as 1300 nM.
